This passage reports Kd results from paper PMC12708648 (2025).

One assay has as its target T1, CP-GST (rice stripe virus (RSV), UniProt P68559 1-322).
T1 chain: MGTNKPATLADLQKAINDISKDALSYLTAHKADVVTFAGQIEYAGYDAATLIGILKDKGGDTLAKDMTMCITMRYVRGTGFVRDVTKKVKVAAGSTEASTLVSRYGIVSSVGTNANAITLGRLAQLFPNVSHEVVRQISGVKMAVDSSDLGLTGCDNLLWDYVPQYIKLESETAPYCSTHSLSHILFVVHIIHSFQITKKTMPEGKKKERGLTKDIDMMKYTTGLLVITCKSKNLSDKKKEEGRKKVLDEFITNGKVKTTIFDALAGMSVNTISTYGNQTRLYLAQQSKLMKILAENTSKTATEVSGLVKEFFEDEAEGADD
Nature of the assay: MST.

The next assay deals with T2, NS3-GST (rice stripe virus (RSV)).
T2 chain: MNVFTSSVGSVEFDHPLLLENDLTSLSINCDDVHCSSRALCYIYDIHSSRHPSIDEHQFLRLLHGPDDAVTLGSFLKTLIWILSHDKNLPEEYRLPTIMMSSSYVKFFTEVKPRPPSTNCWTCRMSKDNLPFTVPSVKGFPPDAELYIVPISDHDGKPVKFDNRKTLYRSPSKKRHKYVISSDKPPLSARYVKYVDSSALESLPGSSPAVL
Nature of the assay: MST.

B1: OsVIRK1N-His (domain or fragment)
chain: MAPPPPSPPCRPRVKPERALLCFSLLLLLTATTANASITDCPTTSSTNSSHVDDGAFGANLRALLSSLSAAAAASSSGFAENATGAAPDTAYGLAQCRGGIVGGGNGTSCRSCLDDSVRDAAKACPGEKSAVIISDYCLVRYSNASFAGAADERTVKLWWNTDNATQPERFKSLLGTLMGNLTDAAARASSPLMFAAGETDLPPFTKIYGMAQCTRDLAAGDCYRCLVGAVNNIPKCCDGKQGGQVITRSCSIRFEVYPFFDA
modifications: labelling dye (NanoTemper) in the MST assay
For the molecule B1, the figures for the equilibrium dissociation constant (Kd) in the assay with CP-GST and with NS3-GST were 1.29 µM and 5.2 µM, respectively.

B2: OsVIRK1C-His (domain or fragment)
chain: LCKRNRKPHKHMMIGSVDLGDEDEMRGSESLLYDLSTLRAATANFSEENKLGEGGFGPVYKGTLQNGQEIAVKRLSATSHQGQLEMKNEVVLVAKLQHKNLVRLLGCCIEEREKILVYEFLCNKSLDTILFDTSRQQDLNWEQRFKIIEGIGRGLLYLHEDSRLKIIHRDLKASNILLDVDMNPKISDFGLAKLFNMEASVANTSRIAGTYGYMAPEYALHGIFSAKSDVFSYGVLLLEIVTGRRNTCLHDSEDLLAFVWRHWSRGGAGELLDGCPAAGRRPQELLRCIHVGLLCVQEDPQLRPGMAAVVVMLNSRSVTLPAPSAPAFVSASRGIGGSPPPAAAAGDAPARSTDHEVPTAAR
modifications: labelling dye (NanoTemper) in the MST assay
In the case of B2, the equilibrium dissociation constant (Kd) with CP-GST came out at 0.704 µM; with NS3-GST, 4.25 µM.

In general, Kd refers to the free concentration of one partner at which half of the binding sites on the other are occupied at equilibrium, for simple one-to-one binding. Read a high Kd as a looser complex.
